According to US20130022590, “Compositions Comprising Zinc Finger Domains and Uses Therefor” (published 2013):

What was measured:
ZRANB2-F12 [1] = target: T1, ZRANB2-F12 (Homo sapiens, UniProt O95218 O95218:1-95); assay: SPR; immobilised RNA; 750 nM F12; 10 mM phosphate pH 7.2, 50 mM NaCl, 25 C; conditions: tags: GST removed for FA, gel shift and SPR; label: 5'-biotin
Method: (§1) Competition binding experiments were carried out by flowing a solution of F12 over a streptavidin chip coated with a biotinylated ssRNA oligonucleotide (containing the sequence AGGUAA) in the presence of an unlabeled competitor oligonucleotide.
(§2) Binding experiments were performed in triplicate at 25° C. on a BIACORE 3000 (Biacore). A 5′ biotin-labeled RNA oligonucleotide containing the 5′ splice site from exon 3 of the Tra2β minigene ([…]; SEQ ID NO: 29) was purified by size exclusion chromatography (Superdex 75), and unlabeled competitor oligonucleotides i.e., […] from exon 1 (SEQ ID NO: 30), […] from exon 2 (SEQ ID NO: 31), and […] from exon 3 (SEQ ID NO: 32) were used without further purification. Protein and RNA samples were dialysed into 10 mM sodium phosphate (pH 7.2), 50 mM NaCl, 1 mM DTT, and 0.005% NP20 and filtered. The biotinylated RNA was heated to 65° C. for 5 min, cooled on ice, and then immobilized onto a streptavidin-coated sensor chip to a total of approximately 160 relative units. Solutions of 750 nM F12 in the presence of 1 molar equivalent of each competitor RNA were injected in random order over the sensor chip (at a flow rate of 20 μL/min for 120 sec) and allowed to undergo a 120-sec dissociation time; a further 300-sec interval was allowed between injections. Data were analyzed by using BIA Evaluation software (Biacore).

ZRANB2-F12 [2] = target: T1, ZRANB2-F12; assay: competition; strongest competitor in SPR competition; conditions: tags: GST removed for FA, gel shift and SPR
Method: as §1
as §2, with “software (Biacore). […]” for “software (Biacore).”

ZRANB2-F12 [3] = target: T1, ZRANB2-F12; assay: EMSA; dsDNA control; conditions: tags: GST removed for FA, gel shift and SPR; label: 32P
Method: (§3) Gel Shift assays e.g., FIGS. 1B, 32A, were carried out using standard protocols. In brief, oligonucleotides were 5′ end-labelled with T4 polynucleotide kinase and annealed. Binding reactions were set up in a volume of 30 μL and contained a constant concentration of ³²P-labeled probe (0.1 pmol) and increasing concentrations of F12, in a buffer consisting of 10 mM Mops (pH 7.2), 50 mM KCl, 5 mM MgCl₂, 1 mM DTT, 0.03 mg/mL heparin, and 5% glycerol. Binding reactions were set up on ice and incubated at 4° C. for 30 min, after which time 15 μL of each sample was loaded onto a prerun 8% native polyacrylamide gel made up in 0.5× Tris-borate buffer, and electrophoresed (250V, 1 h, 4° C.). The oligonucleotide sequence used for gel shift experiments was […] (SEQ ID NO: 28); the site was mutated by changing the central GGU to CUG.
(§4) To determine whether the AGGUAA motif was sufficient for binding, the binding of the double finger construct F12 to a 17-nt RNA oligonucleotide containing a single AGGUAA motif was tested as described in Section 1.4 above with dsDNA, ssDNA, and dsRNA also tested as controls. […] Mutation of the central GGU, which is the most highly-conserved element in the SELEX consensus to CUG, abrogated the interaction, showing that the interaction is sequence specific (FIG. 1B).

ZRANB2-F12 [4] = target: T1, ZRANB2-F12; assay: EMSA; interaction abrogated; conditions: tags: GST removed for FA, gel shift and SPR; label: 32P
Method: as §3, §4

ZRANB2-F2 (untagged) = target: T2, ZRANB2-F2 (untagged) (Homo sapiens, UniProt O95218 O95218:65-95); assay: 15N-HSQC titration, 1:1 complex
T2 chain: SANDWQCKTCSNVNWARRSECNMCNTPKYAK
Method: For RNA titrations, deprotected RNA oligonucleotides i.e., having the sequence AGGUAA, […] (SEQ ID NO: 25), or […] (SEQ ID NO: 26) and the appropriate protein were dialyzed into 10 mM Mops (pH 7.2) and 0.5 mM DTT. Protein and RNA concentrations were calculated from A₂₈₀ and A₂₆₀, respectively. Final concentrations of complexes after titrations were typically approximately 0.1-0.5 mM. Assignments of the F2:RNA complex (1:1 or 1:1.2 molar ratio) were made at 25° C. as described above.
The inventors then carried out chemical-shift perturbation experiments, titrating short (6 or 10 nt) RNA oligonucleotides containing a single AGGUAA motif into ¹⁵N-labeled F2.

CUCUGAAUCUAGGUAAGAAAG (ssRNA) [Tra2-beta exon 3 5' splice site]: binds (ZRANB2-F12 [1]).

CUCUGAAUCUAGGUAAGAAAG (ssRNA) [Tra2-beta exon 3 5' splice site competitor]: binds (ZRANB2-F12 [2]).

B1: 17-nt site as dsDNA (dsDNA)
DNA 1: GCAACCAGGTAAAGTCT
DNA 2: AGACTTTACCTGGTTGC
modifications: [none]
B1: no binding (ZRANB2-F12 [3]).

GCAACCACUGAAAGUCU (ssRNA, [none]) [17-nt CUG mutant ssRNA]: no binding (ZRANB2-F12 [4]).

CCAGGUAAAG (ssRNA) [10-nt AGGUAA RNA]: binds (ZRANB2-F2 (untagged)).
